The results in this text go back to patent US20070274991A1 (published 2007).

This experiment concerns the target T1, intact EGFR expressed on human mammary epithelial cells (HMECs) (human, UniProt P00533 25-1210).
T1 construct: whole, on cells; also called wild-type EGFR
The experiment in a line: radiolabeled antibody on parental HMECs.

Protocol: To measure the effect on EGFR and EGFRvIII signaling of a given antibody binding to EGFR or EGFRvIII, radiolabeled antibodies were added to cultures of the HMECs described in the table above. […] When a non-neutralizing radiolabeled antibody binds to EGFR on a mammalian cell, the antibody will be internalized at a high rate if a ligand is present or if the EGFR is constitutively signaling for some other reason. When a neutralizing radiolabeled antibody binds to EGFR, signaling will stop and signaling-stimulated endocytosis will also stop.
In brief, radiolabelled antibodies were added to culture parental HMECs and to HMECs expressing EGFRvIII. At times of 0, 1, 2, 3, 5 and 10 minutes, cell samples were withdrawn, washed, and then acid-stripped to remove and measure surface-bound radiolabeled antibody. The cells were then lysed and the remaining radiolabel was measured to determine levels of internalized antibody.

B1: EMD72000 (antibody, V domains shown)
VH: QVQLVQSGAEVKKPGASVKVSCKASGYTFTSHWMHWVRQAPGQGLEWIGEFNPSNGRTNYNEKFKSKATMTVDTSTNTAYMELSSLRSEDTAVYYCASRDYDYDGRYFDYWGQGTLVTVS
VL: DIQMTQSPSSLSASVGDRVTITCSASSSVTYMYWYQQKPGKAPKLLIYDTSNLASGVPSRFSGSGSGTDYTFTISSLQPEDIATYYCQQWSSHIFTFGQGTKVEIK
notes: Used fluorescently labeled in yeast display and radiolabeled in the internalization assay; also called anti-EGFR antibody EMD72000; humanized version of the murine antibody 425
Consider B1, for which the binding result is “binds”.
